Experimental data as given in patent US20070298043A1 (RAMOT AT TEL AVIV UNIVERSITY, published 2007).

Columns and labels:
GST-YoeB fusion protein [1] = target: T1, GST-YoeB fusion protein (Escherichia coli, UniProt P69348 1-84); assay: peptide array on cellulose membrane, anti-GST detection
T1 construct: also called YoeB-GST; GST-YoeB fusion polypeptide; not shown: glutathione S-transferase (GST) fusion partner encoded by the pET42a expression vector (Novagen); vector-encoded linker of pET42a between GST and the EcoRI cloning site; not described
T1 sequence: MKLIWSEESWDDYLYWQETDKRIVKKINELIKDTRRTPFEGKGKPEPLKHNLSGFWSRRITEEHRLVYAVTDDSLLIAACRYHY
Protocol: (§1) Following incubation, the membrane was washed once in TBS-T then supplemented with 10 ml suspension comprising TBS, mouse anti-GST antibody and horseradish peroxidase conjugated goat anti-mouse antibody in the appropriate titers. Following 1 hour incubation at room temperature the membrane was briefly washed with TBS-T and TBS.

GST-YoeB fusion protein [2] = target: T1, GST-YoeB fusion protein; assay: peptide array on cellulose membrane, single-residue shift, high stringency, GST-YoeB probe, anti-GST antibody and chemiluminescence
Protocol: as §1

GST-YoeB fusion protein [3] = target: T1, GST-YoeB fusion protein; assay: peptide array, low stringency
GST-YoeB fusion protein [4] = target: T1, GST-YoeB fusion protein; assay: peptide array of single-replacement analogs
Protocol: as §1

GST-YoeB fusion protein [5] = target: T1, GST-YoeB fusion protein; assay: peptide array on cellulose membrane, low stringency, GST-YoeB probe, anti-GST antibody and chemiluminescence

Binder: RTISYSEAAQNLS (Arrayed on a cellulose membrane) [YefM11-23 analog with arginine 19 replaced by alanine]
- binding result (GST-YoeB fusion protein [1]): no binding

B1: 12-24 (peptide)
peptide: TISYSEARQNLSA
notes: Cell not labelled; also called YefM12-24 peptide
- binding result (GST-YoeB fusion protein [2]): binds

Binder: DSIDSLKSGKGTE [YefM75-87 peptide]
- binding result (GST-YoeB fusion protein [3]): binds

Binder: RTISYSEARQNGS (Position 22 counts on whole YefM) [YefM11-23 analog with leucine 22 replaced by glycine]
- binding result (GST-YoeB fusion protein [4]): binds

Binder: YSEARQNLSATMM [YefM15-27 peptide]
- binding result (GST-YoeB fusion protein [5]): binds

Binder: RTISYSEAGQNLS (Arrayed on a cellulose membrane) [YefM11-23 analog with arginine 19 replaced by glycine]
- binding result (GST-YoeB fusion protein [1]): no binding

Binder: RTISYSEARQNAS (Position 22 counts on whole YefM) [YefM11-23 analog with leucine 22 replaced by alanine]
- binding result (GST-YoeB fusion protein [4]): binds

B2: YefM13-25 peptide (peptide)
peptide: ISYSEARQNLSAT
notes: It follows from 'YefM11-23-YefM15-27', three tridecamers with a shift of two amino acids; also called second of the three tridecamers YefM11-23-YefM15-27
- binding result (GST-YoeB fusion protein [5]): binds

B3: 10-22 (peptide)
peptide: MRTISYSEARQNL
notes: Cell not labelled; also called YefM10-22 peptide
- binding result (GST-YoeB fusion protein [2]): binds
